Data from PMC6238537 (Life Science Alliance, 2018).

Biological target: T1, recombinant human laminin-511 (human, UniProt O15230 36-3695; P07942 22-1786; P11047 34-1609)
T1 construct: the FLAG tag stands just after the N-terminal signal peptide cleavage site; αβγ heterotrimer; also called LM511; not shown: FLAG, N-terminal, kept; copies: + +
Assay: ELISA; solid-phase binding assay: 96-well plates coated with laminins at 5 nM overnight at 4°C, blocked with 3% BSA; 30 nM integrins for 3 h at room temperature with 1 mM Mn2+; bound integrins detected by biotinylated anti-Velcro pAb and HRP-streptavidin (absorbance at 490 nm)
Conditions: both partners purified

| Binder | binding result |
| --- | --- |
| recombinant integrin αvβ3 (receptor, human, integrin αv subunit, human, extracellular domain; integrin β3 subunit, human, extracellular domain; truncated soluble heterodimer; vectors from Dr. Junichi Takagi (Takagi et al, 2001, 2002a, b); Purification on ANTI-FLAG gel implies a FLAG tag) chain 1: FNLDVDSPAEYSGPEGSYFGFAVDFFVPSASSRMFLLVGAPKANTTQPGIVEGGQVLKCDWSSTRRCQPIEFDATGNRDYAKDDPLEFKSHQWFGASVRSKQDKILACAPLYHWRTEMKQEREPVGTCFLQDGTKTVEYAPCRSQDIDADGQGFCQGGFSIDFTKADRVLLGGPGSFYWQGQLISDQVAEIVSKYDPNVYSIKYNNQLATRTAQAIFDDSYLGYSVAVGDFNGDGIDDFVSGVPRAARTLGMVYIYDGKNMSSLYNFTGEQMAAYFGFSVAATDINGDDYADVFIGAPLFMDRGSDGKLQEVGQVSVSLQRASGDFQTTKLNGFEVFARFGSAIAPLGDLDQDGFNDIAIAAPYGGEDKKGIVYIFNGRSTGLNAVPSQILEGQWAARSMPPSFGYSMKGATDIDKNGYPDLIVGAFGVDRAILYRARPVITVNAGLEVYPSILNQDNKTCSLPGTALKVSCFNVRFCLKADGKGVLPRKLNFQVELLLDKLKQKGAIRRALFLYSRSPSHSKNMTISRGGLMQCEELIAYLRDESEFRDKLTPITIFMEYRLDYRTAADTTGLQPILNQFTPANISRQAHILLDCGEDNVCKPKLEVSVDSDQKKIYIGDDNPLTLIVKAQNQGEGAYEAELIVSIPLQADFIGVVRNNEALARLSCAFKTENQTRQVVCDLGNPMKAGTQLLAGLRFSVHQQSEMDTSVKFDLQIQSSNLFDKVSPVVSHKVDLAVLAAVEIRGVSSPDHVFLPIPNWEHKENPETEEDVGPVVQHIYELRNNGPSSFSKAMLHLQWPYKYNNNTLLYILHYDIDGPMNCTSDMEINPLRIKISSLQTTEKNDTVAGQGERDHLITKRDLALSEGDIHTLGCGVAQCLKIVCQVGRLDRGKSAILYVKSLLWTETFMNKENQNHSYSLKSSASFNVIEFPYKNLPIEDITNSTLVTTNVTWGIQPAPMPV chain 2: GPNICTTRGVSSCQQCLAVSPMCAWCSDEALPLGSPRCDLKENLLKDNCAPESIEFPVSEARVLEDRPLSDKGSGDSSQVTQVSPQRIALRLRPDDSKNFSIQVRQVEDYPVDIYYLMDLSYSMKDDLWSIQNLGTKLATQMRKLTSNLRIGFGAFVDKPVSPYMYISPPEALENPCYDMKTTCLPMFGYKHVLTLTDQVTRFNEEVKKQSVSRNRDAPEGGFDAIMQATVCDEKIGWRNDASHLLVFTTDAKTHIALDGRLAGIVQPNDGQCHVGSDNHYSASTTMDYPSLGLMTEKLSQKNINLIFAVTENVVNLYQNYSELIPGTTVGVLSMDSSNVLQLIVDAYGKIRSKVELEVRDLPEELSLSFNATCLNNEVIPGLKSCMGLKIGDTVSFSIEAKVRGCPQEKEKSFTIKPVGFKDSLIVQVTFDCDCACQAQAEPNSHRCNNGNGTFECGVCRCGPGWLGSQCECSEEDYRPSQQDECSPREGQPVCSQRGECLCGQCVCHSSDFGKITGKYCECDDFSCVRYKGEMCSGHGQCSCGDCLCDSDWTGYYCNCTTRTDTCMSSNGLLCSGRGKCECGSCVCIQPGSYGDTCEKCPTCPDACTFKKECVECKKFDRGALHDENTCNRYCRDEIESVKELKDTGKDAVNCTYKNEDDCVVRFQYYEDSSGKSILYVVEEPECPKGPD | binds |
| recombinant integrin αvβ5 (receptor, human, integrin αv subunit, human, extracellular domain; integrin β5 subunit, human, extracellular domain; cDNA amplified from RNA of T98G human glioblastoma cells; truncated soluble heterodimer; Purification on ANTI-FLAG gel implies a FLAG tag) chain 1: FNLDVDSPAEYSGPEGSYFGFAVDFFVPSASSRMFLLVGAPKANTTQPGIVEGGQVLKCDWSSTRRCQPIEFDATGNRDYAKDDPLEFKSHQWFGASVRSKQDKILACAPLYHWRTEMKQEREPVGTCFLQDGTKTVEYAPCRSQDIDADGQGFCQGGFSIDFTKADRVLLGGPGSFYWQGQLISDQVAEIVSKYDPNVYSIKYNNQLATRTAQAIFDDSYLGYSVAVGDFNGDGIDDFVSGVPRAARTLGMVYIYDGKNMSSLYNFTGEQMAAYFGFSVAATDINGDDYADVFIGAPLFMDRGSDGKLQEVGQVSVSLQRASGDFQTTKLNGFEVFARFGSAIAPLGDLDQDGFNDIAIAAPYGGEDKKGIVYIFNGRSTGLNAVPSQILEGQWAARSMPPSFGYSMKGATDIDKNGYPDLIVGAFGVDRAILYRARPVITVNAGLEVYPSILNQDNKTCSLPGTALKVSCFNVRFCLKADGKGVLPRKLNFQVELLLDKLKQKGAIRRALFLYSRSPSHSKNMTISRGGLMQCEELIAYLRDESEFRDKLTPITIFMEYRLDYRTAADTTGLQPILNQFTPANISRQAHILLDCGEDNVCKPKLEVSVDSDQKKIYIGDDNPLTLIVKAQNQGEGAYEAELIVSIPLQADFIGVVRNNEALARLSCAFKTENQTRQVVCDLGNPMKAGTQLLAGLRFSVHQQSEMDTSVKFDLQIQSSNLFDKVSPVVSHKVDLAVLAAVEIRGVSSPDHVFLPIPNWEHKENPETEEDVGPVVQHIYELRNNGPSSFSKAMLHLQWPYKYNNNTLLYILHYDIDGPMNCTSDMEINPLRIKISSLQTTEKNDTVAGQGERDHLITKRDLALSEGDIHTLGCGVAQCLKIVCQVGRLDRGKSAILYVKSLLWTETFMNKENQNHSYSLKSSASFNVIEFPYKNLPIEDITNSTLVTTNVTWGIQPAPMPV chain 2: GLNICTSGSATSCEECLLIHPKCAWCSKEDFGSPRSITSRCDLRANLVKNGCGGEIESPASSFHVLRSLPLSSKGSGSAGWDVIQMTPQEIAVNLRPGDKTTFQLQVRQVEDYPVDLYYLMDLSLSMKDDLDNIRSLGTKLAEEMRKLTSNFRLGFGSFVDKDISPFSYTAPRYQTNPCIGYKLFPNCVPSFGFRHLLPLTDRVDSFNEEVRKQRVSRNRDAPEGGFDAVLQAAVCKEKIGWRKDALHLLVFTTDDVPHIALDGKLGGLVQPHDGQCHLNEANEYTASNQMDYPSLALLGEKLAENNINLIFAVTKNHYMLYKNFTALIPGTTVEILDGDSKNIIQLIINAYNSIRSKVELSVWDQPEDLNLFFTATCQDGVSYPGQRKCEGLKIGDTASFEVSLEARSCPSRHTEHVFALRPVGFRDSLEVGVTYNCTCGCSVGLEPNSARCNGSGTYVCGLCECSPGYLGTRCECQDGENQSVYQNLCREAEGKPLCSGRGDCSCNQCSCFESEFGKIYGPFCECDNFSCARNKGVLCSGHGECHCGECKCHAGYIGDNCNCSTDISTCRGRDGQICSERGHCLCGQCQCTEPGAFGEMCEKCPTCPDACSTKRDCVECLLLHSGKPDNQTCHSLCRDEVITWVDTIVKDDQEAVLCFYKTAKDCVMMFTYVELPSGKSNLTVLREPECGNTPN | binds |
